The source of these data is patent US20210252159A1, “CONJUGATES OF CARTILAGE-HOMING PEPTIDES” (priority 2018, published 2021).

Positions of bridges follow the written chain, without caps; N, C: chain ends. Residues, ends and D or L forms follow the SMILES beside them. *: point of attachment. X4 = C[C@@H]1C[C@H]2[C@@H]3CCC4=CC(=O)C=C[C@]4(C)[C@@]3(F)[C@@H](O)C[C@]2(C)[C@@]1(O)C(=O)COC(=O)[C@H]1CC[C@H](C(=O)*)CC1

A short description of data set [1]: Hydrolysis assay of peptide-drug conjugates in human plasma (free Dex by LC/MS). The following applies: 37° C., release of free Dex, time points to 32 hr, read-out: Half-life (hours) as measured in the hydrolysis experiments (converted). The format is in vitro ADME. As for the experimental part: In order to determine hydrolysis rates, conjugates can be diluted in PBS, rat plasma, or human plasma and incubated at 37 degrees. Samples can be taken at designated time-points (e.g., 1, 2, 3, 5, 10, 15, 20, 25, 30, 45, 60, or 90 minutes and/or hours after administration). Internal standards such as triamcinolone acetonide (TAA) can be added as an internal standard, and then active agent/TAA can be extracted using acetonitrile, for example. The samples can be dried down, reconstituted, and analyzed by LC/MS. Data can be normalized using Dex AUC/TAA AUC. Percent hydrolysis can be calculated using the average ratio for active agent AUC/TAA AUC at a time point of maximal drug release. A general method can include using a lyophilized, purified peptide-drug conjugates reconstituted in DMSO following production to generate stock solution at 20 mg/mL. Each conjugate stock can be brought to 0.25 mg/mL in each hydrolysis condition (1×DPBS, human plasma and rat plasma) in triplicate and rocked at 37° C. To quantitate free active agent, 100 μl of the hydrolyzed conjugate solution can be transferred into 1 mL acetonitrile at 4° C. at which time all plasma proteins and intact conjugates can precipitate. This can be performed repeatedly to generate a series of time points (0 hr, 0.5 hr, 1 hr, 2 hr, 4 hr, 6 hr, 8 hr, 24 hr, 32 hr). The acetonitrile solution can be spun at 17,000 g for 5 minutes, and the supernatant removed and added to a 96 well block. The pellet can then be resuspended in 500 μl acetonitrile and re-pelleted as before. The supernatant can be removed and added to the same well in the block. Samples can be prepared for analysis by drying under a nitrogen stream followed by reconstitution in 110 μl 45:55 ACN:Citrate 10 mM pH 5.5. […] Quantification of free active agent (or drug) can be achieved through integration of active agent peaks of the TIC. […]
To quantitate free dexamethasone (Dex), 100 μl of the hydrolyzed conjugate solution was transferred into 1 mL acetonitrile at 4° C. at which time all plasma proteins and intact conjugates precipitated. […]

Data set [2] in a line: Hydrolysis assay of peptide-drug conjugates in rat plasma (free drug by LC/MS). The settings on record: 37° C. The format is in vitro ADME. As for the experimental part:
Peptide-drug conjugate peptide(SEQ ID NO: 105)-DMA-dCIC was incubated in rat plasma at 37° C. Samples were removed at regular intervals, processed by solvent extraction, and analyzed by LC/MS to quantitate free dCIC. 11 time-points were measured between 5 min and 56 hours with 3 replicates per time point. The assay was repeated two times.
(§1) In order to determine hydrolysis rates, conjugates can be diluted in PBS, rat plasma, or human plasma and incubated at 37 degrees. Samples can be taken at designated time-points (e.g., 1, 2, 3, 5, 10, 15, 20, 25, 30, 45, 60, or 90 minutes and/or hours after administration). Internal standards such as triamcinolone acetonide (TAA) can be added as an internal standard, and then active agent/TAA can be extracted using acetonitrile, for example. The samples can be dried down, reconstituted, and analyzed by LC/MS. Data can be normalized using Dex AUC/TAA AUC. Percent hydrolysis can be calculated using the average ratio for active agent AUC/TAA AUC at a time point of maximal drug release. A general method can include using a lyophilized, purified peptide-drug conjugates reconstituted in DMSO following production to generate stock solution at 20 mg/mL. Each conjugate stock can be brought to 0.25 mg/mL in each hydrolysis condition (1×DPBS, human plasma and rat plasma) in triplicate and rocked at 37° C. To quantitate free active agent, 100 μl of the hydrolyzed conjugate solution can be transferred into 1 mL acetonitrile at 4° C. at which time all plasma proteins and intact conjugates can precipitate. This can be performed repeatedly to generate a series of time points (0 hr, 0.5 hr, 1 hr, 2 hr, 4 hr, 6 hr, 8 hr, 24 hr, 32 hr). The acetonitrile solution can be spun at 17,000 g for 5 minutes, and the supernatant removed and added to a 96 well block. The pellet can then be resuspended in 500 μl acetonitrile and re-pelleted as before. The supernatant can be removed and added to the same well in the block. Samples can be prepared for analysis by drying under a nitrogen stream followed by reconstitution in 110 μl 45:55 ACN:Citrate 10 mM pH 5.5. To ensure optimal recovery the block can be shaken via plate shaker at 7,000 rpm for 5 minutes during the reconstitution step. Prior to LC/MS the samples can be transferred to a 96 well plate and centrifuged at 6,500 g for 15 minutes. Analysis can be performed on an Agilent 1260 Infinity series HPLC with inline 6120 single quad MS using acetonitrile, water (+0.1% TFA) gradient (shown below) on an InfinityLab Poroshell SB-C18 column. Quantification of free active agent (or drug) can be achieved through integration of active agent peaks of the TIC.
(§2) Lyophilized, purified peptide-drug conjugates were reconstituted in DMSO following production to generate stock solution at 20 mg/mL. Each conjugate stock was brought to 0.25 mg/mL in each hydrolysis condition (1×DPBS, human plasma and rat plasma) in triplicate and rocked at 37° C.
(§3) To quantitate free dexamethasone (Dex), 100 μl of the hydrolyzed conjugate solution was transferred into 1 mL acetonitrile at 4° C. at which time all plasma proteins and intact conjugates precipitated. This was performed repeatedly to generate a series of time points (0 hr, 0.5 hr, 1 hr, 2 hr, 4 hr, 6 hr, 8 hr, 24 hr, 32 hr). The corticosteroid triamcinolone acetonide (25 μl, 0.1 mg/mL in 45:55 ACN:Citrate 10 mM pH 5.5) was supplemented into the acetonitrile solution as an internal standard. The acetonitrile solution was spun at 17,000 g for 5 minutes, and the supernatant removed and added to a 96 well block. The pellet was resuspended in 500 μl acetonitrile and re-pelleted as before. The supernatant was removed and added to the same well in the block.
Samples were prepared for analysis by drying under a nitrogen stream followed by reconstitution in 110 μl 45:55 ACN:Citrate 10 mM pH 5.5. To ensure optimal recovery the block was shaken via plate shaker at 7,000 rpm for 5 minutes during the reconstitution step. […]

A short description of data set [3]: Hydrolysis assay of peptide-drug conjugates in PBS (free Dex by LC/MS). The format is physicochemical. The settings on record: 37° C. As for the experimental part:
as §1, §2, §3
Samples were prepared for analysis by drying under a nitrogen stream followed by reconstitution in 110 μl 45:55 ACN:Citrate 10 mM pH 5.5. To ensure optimal recovery the block was shaken via plate shaker at 7,000 rpm for 5 minutes during the reconstitution step. Prior to LC/MS the samples were transferred to a 96 well plate and centrifuged at 6,500 g for 15 minutes. Analysis was performed on an Agilent 1260 Infinity series HPLC with inline 6120 single quad MS using a gradient of 0.1% TFA in acetonitrile (solvent B), and 0.1% TFA (aq) (solvent A) gradient (shown below) on an InfinityLab Poroshell SB-C18 column. […]

Another data set concerns CIA rats. As for the experimental part:
Arthritis was induced in 9-week-old female Lewis rats (Envigo or Charles River Laboratories) by intradermal injection while anesthetized of 400 ug bovine type II collagen (Chondrex Inc, Redmond Wash.) in 2 adjacent 200 ul (1 mg/ml) doses on day 0. Collagen is prepared for injection by dissolving at 2 mg/ml in 0.01N glacial acetic acid in sterile water and rocking at 4° C. overnight then emulsifying in Freund's incomplete adjuvant (IFA, Sigma Aldrich). To emulsify, equal volumes of collagen solution and IFA are drawn up into separate syringes, which are joined by a 3-way stopcock. While on ice, the collagen and IFA are mixed by pressing between the two syringes rapidly for 10 minutes. Quality of the emulsification is tested after 10 minutes of mixing by dropping a small amount of mixture in water. A properly emulsified solution will remain as a discrete droplet and not disperse in the water. On day 7, rats are challenged with a second intradermal injection of 100 ug of collagen in 100 ul, 1 mg/ml, collagen in IFA solution prepared fresh. Body weight and ankle diameter measurements are recorded daily from day 7 through the end of the study. Ankle diameter was measure by a single researcher using a Fowler Digitrix 2 micrometer. Three measurements of each ankle were taken of the lateral dimension at the tarsus of lightly anesthetized rats. The reported ankle diameter measurement is the mean of the three measurements.
Arthritis was induced as described in four cohorts of 9-week-old female Lewis rats. Rats were randomly placed in treatment groups, balancing compound and dose groups across cohorts. […] Rats were dosed by tail vein injection on days 11 and 12 and euthanized on day 13 by CO2 asphyxiation. Immediately after cessation of respiratory movement, blood was collected by cardiac puncture, synovial fluid was collected from both knees, one hind limb was fixed in formalin and the alternate ankle was frozen on dry ice. Thymus, spleen, liver, and kidney weights were recorded.
CIA Response study design.
The aim of the study was to test the 4 conjugates with various linkers at two different doses in vivo in CIA rats to assess the following: ability to deliver sufficient dexamethasone to the joint to show functionality and potential therapeutic effect in the disease model.
CIA was induced in female Lewis rats (as described above, see EXAMPLE 21). Body weight and ankle joint diameters were measured on day 0 and then daily from day 7 until euthanasia. […] At euthanasia, synovial fluid was collected from both knees, one hind limb was fixed in formalin and the alternate ankle was frozen on dry ice. Thymus, spleen, liver, and kidney weights were recorded. Blood samples were submitted for CBC/Chemistry analysis, and the remaining plasma was frozen.

A word on the half-life: it is the time in which the quantity being followed falls by half.

Turning to `CC[C@H](C)[C@@H]1NC(=O)[C@@H]2CSSC[C@H](NC(=O)[C@H](CCCNC(=N)N)NC(=O)[C@@H](NC(=O)[C@H](CC(N)=O)NC(=O)[C@@H](NC(=O)[C@@H]3CCCN3C(=O)[C@@H](NC(=O)CNC(=O)[C@H](CO)NC(=O)CNC(=O)[C@H]3CC[C@H](C(=O)OCC(=O)[C@@]4(O)[C@H](C)C[C@H]5[C@@H]6CCC7=CC(=O)C=C[C@]7(C)[C@@]6(F)[C@@H](O)C[C@@]54C)CC3)C(C)C)[C@@H](C)CC)C(C)C)C(=O)N[C@@H](CCCNC(=N)N)C(=O)NCC(=O)N[C@@H](CO)C(=O)N[C@@H](CCCNC(=N)N)C(=O)N[C@@H](CC(=O)O)C(=O)N[C@H]3CSSC[C@H](NC(=O)[C@H](CCCNC(=N)N)NC(=O)[C@H](CO)NC(=O)[C@H](CC(N)=O)NC1=O)C(=O)N[C@@H](Cc1c[nH]cn1)C(=O)N[C@H](C(=O)N[C@H](C(=O)N1CCC[C@H]1C(=O)O)[C@@H](C)O)CSSC[C@H](NC(=O)[C@@H]1CCCN1C(=O)[C@H](CC(=O)O)NC(=O)[C@H](CC(C)C)NC3=O)C(=O)N[C@@H](CCCNC(=N)N)C(=O)N[C@@H](CCCNC(=N)N)C(=O)N[C@@H](C)C(=O)NCC(=O)N[C@@H](CCSC)C(=O)N[C@@H](CCCNC(=N)N)C(=O)N[C@@H](Cc1ccccc1)C(=O)NCC(=O)N[C@@H](CCCNC(=N)N)C(=O)N2` [Compound 25, Peptide(SEQ ID NO: 105)-trans-1,4-cyclohexyl-Dex] (X4-GSGVPINVRCRGSRDCLDPCRRAGMRFGRCINSRCHCTP-OH; disulfide 10-30, 16-35, 20-37 (inferred); C-terminus assumed), in data set [1], the half-life at 0.25 mg/mL was 21.3 h. Besides, the half-life at 0.25 mg/mL in data set [2] (Rat Plasma, release of free Dex, time points to 32 hr, read-out: Half-life (hours) as measured in the hydrolysis experiments (converted)) was 3.4 h. In data set [2] (in rat plasma, free Dex, read-out: Hydrolysis half-life (converted)), the half-life at 0.25 mg/mL is 3.4 h. For the same compound, the “Half-life (hours) as measured in the hydrolysis experiments” value in data set [3] (PBS, release of free Dex, time points to 32 hr) is reported as “undetectable ≤32”. Further, the Hydrolysis half-life entry in data set [3] (in PBS, free Dex) was “No Dex release ≤32 h”. Also, the “ankle swelling over time as compared to vehicle” value in the data set on CIA rats (0.2 mg/kg and 0.5 mg/kg Dex equivalents IV days 11 and 12) is on record as “reduction in ankle swelling”. In the data set on CIA rats (0.2 mg/kg and 0.5 mg/kg dose), the spleen weight result was “reduction”, the thymus weight entry is reported as “reduction” and the total body weight result is on record as “reduction”. For the same compound, in the data set on CIA rats (0.2 mg/kg dose), the “change in median ankle diameter between day 11 and day 13 as compared to vehicle” value was “statistically significant reduction in ankle diameter”; the “difference from Dex in change in ankle diameter” value is listed as “no statistically significant difference”. For the same compound, the “reduction in thymus weight as compared to vehicle” value in the data set on CIA rats (0.2 mg/kg dose groups) is given as “statistically significant”.
